# Measurements published in IntAct's records for PubMed 25402481.
# B1: BBSome complex member BBS1 (Homo sapiens), Q8NFJ9 (parent)
# chain: MAAASSSDSDACGAESNEANSKWLDAHYDPMANIHTFSACLALADLHGDGEYKLVVGDLGPGGQQPRLKVLKGPLVMTESPLPALPAAAATFLMEQHEPRTPALALASGPCVYVYKNLRPYFKFSLPQLPPNPLEQDLWNQAKEDRIDPLTLKEMLESIRETAEEPLSIQSLRFLQLELSEMEAFVNQHKSNSIKRQTVITTMTTLKKNLADEDAVSCLVLGTENKELLVLDPEAFTILAKMSLPSVPVFLEVSGQFDVEFRLAAACRNGNIYILRRDSKHPKYCIELSAQPVGLIRVHKVLVVGSTQDSLHGFTHKGKKLWTVQMPAAILTMNLLEQHSRGLQAVMAGLANGEVRIYRDKALLNVIHTPDAVTSLCFGRYGREDNTLIMTTRGGGLIIKILKRTAVFVEGGSEVGPPPAQAMKLNVPRKTRLYVDQTLREREAGTAMHRAFQTDLYLLRLRAARAYLQALESSLSPLSTTAREPLKLHAVVQGLGPTFKLTLHLQNTSTTRPVLGLLVCFLYNEALYSLPRAFFKVPLLVPGLNYPLETFVESLSNKGISDIIKVLVLREGQSAPLLSAHVNMPGSEGLAAA
# partner: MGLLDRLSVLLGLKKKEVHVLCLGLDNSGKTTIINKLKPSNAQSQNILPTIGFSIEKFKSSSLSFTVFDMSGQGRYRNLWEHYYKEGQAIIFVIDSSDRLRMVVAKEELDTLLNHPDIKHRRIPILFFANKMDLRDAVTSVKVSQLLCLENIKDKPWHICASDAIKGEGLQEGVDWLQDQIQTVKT
# B2: ADP-ribosylation factor-like protein 6 (Homo sapiens), Q9H0F7-1 (parent)
# chain: B1 partner
# partner: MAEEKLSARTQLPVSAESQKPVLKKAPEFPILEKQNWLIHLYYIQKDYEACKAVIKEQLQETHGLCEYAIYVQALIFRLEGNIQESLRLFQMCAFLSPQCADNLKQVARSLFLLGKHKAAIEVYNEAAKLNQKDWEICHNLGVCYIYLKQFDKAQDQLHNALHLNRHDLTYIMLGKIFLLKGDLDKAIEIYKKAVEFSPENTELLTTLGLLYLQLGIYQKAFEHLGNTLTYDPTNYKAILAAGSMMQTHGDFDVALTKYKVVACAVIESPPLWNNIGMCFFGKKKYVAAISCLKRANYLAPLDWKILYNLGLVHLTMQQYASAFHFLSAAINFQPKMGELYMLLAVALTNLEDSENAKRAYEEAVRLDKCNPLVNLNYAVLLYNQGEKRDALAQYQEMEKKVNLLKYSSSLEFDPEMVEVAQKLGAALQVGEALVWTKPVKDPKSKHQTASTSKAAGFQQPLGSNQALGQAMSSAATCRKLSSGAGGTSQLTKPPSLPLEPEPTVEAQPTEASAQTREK
# Variants of: B1
# Details: with ARL6, Q9H0F7-1
row,Variant,effect of a mutation on the interaction
1,MAAASSSDSDACGAESNEANSKWLDAHYDPMANIHTFSACLALADLHGDGEYKLVVGDLGPGGQQPRLKVLKGPLVMTESPLPALPAAAATFLMEQHEPRTPALALASGPCVYVYKNLRPYFKFSLPQLPPNPLEQDLWNQAKEDRIDPLTLKEMLESIRETAEEPLSIQSLRFLQLELSEMEAFVNQHKSNSIKRQTVITTMTTLKKNLADEDAVSCLVLGTENKELLVLDPEAFTILAKMSLPSVPVFLEVSGQFDVEFRLAAACRNGNIYILRRDSKHPKYCIELSAQPVGLIRVHKVLVVGSTQDSLHGFTHKGKKLWTVQMPAAILTMNLLEQHSRGLQAVMAGLANGEVRIYRDKALLNVIHTPDAVTSLCFGRYGREDNTLIRTTRGGGLIIKILKRTAVFVEGGSEVGPPPAQAMKLNVPRKTRLYVDQTLREREAGTAMHRAFQTDLYLLRLRAARAYLQALESSLSPLSTTAREPLKLHAVVQGLGPTFKLTLHLQNTSTTRPVLGLLVCFLYNEALYSLPRAFFKVPLLVPGLNYPLETFVESLSNKGISDIIKVLVLREGQSAPLLSAHVNMPGSEGLAAA [M390R],disrupting interaction strength

# Variants of: B1
# Details: with ARL6, Q9H0F7-1
# Remark: another data set of the same source
row,Variant,effect of a mutation on the interaction
1,MAAASSSDSDACGAESNEANSKWLDAHYDPMANIHTFSACLALADLHGDGEYKLVVGDLGPGGQQPRLKVLKGPLVMTESPLPALPAAAATFLMEQHEPRTPALALASGPCVYVYKNLRPYFKFSLPQLPPNPLEQDLWNQAKEDRIDPLTLKEMLESIRETAEEPLSIQSLRFLQLELSEMEAFVNQHKSNSIKRQTVITTMTTLKKNLADEDAVSCLVLGTENKELLVLDPEAFTILAKMSLPSVPVFLEVSGQFDVEFRLAAACRNGNIYILRRDSKHPKYCIELSAQPVGLIRVHKVLVVGSTQDSLHGFTHKGKKLWTVQMPAAILTMNLLEQHSRGLQAVMAGLANGEVRIYRDKALLNVIHTPDAVTSLCFGRYGREDNTLIMTTRGGGLIEKILKRTAVFVEGGSEVGPPPAQAMKLNVPRKTRLYVDQTLREREAGTAMHRAFQTDLYLLRLRAARAYLQALESSLSPLSTTAREPLKLHAVVQGLGPTFKLTLHLQNTSTTRPVLGLLVCFLYNEALYSLPRAFFKVPLLVPGLNYPLETFVESLSNKGISDIIKVLVLREGQSAPLLSAHVNMPGSEGLAAA [I399E],disrupting interaction strength
2,MAAASSSDSDACGAESNEANSKWLDAHYDPMANIHTFSACLALADLHGDGEYKLVVGDLGPGGQQPRLKVLKGPLVMTESPLPALPAAAATFLMEQHEPRTPALALASGPCVYVYKNLRPYFKFSLPQLPPNPLEQDLWNQAKEDRIDPLTLKEMLESIRETAEEPLSIQSLRFLQLELSEMEAFVNQHKSNSIKRQTVITTMTTLKKNLADEDAVSCLVLGTENKELLVLDPEAFTILAKMSLPSVPVFLEVSGQFDVEFRLAAACRNGNIYILRRDSKHPKYCIELSAQPVGLIRVHKVLVVGSTQDSLHGFTHKGKKLWTVQMPAAILTMNLLEQHSRGLQAVMAGLANGEVRIYRDKALLNVIHTPDAVTSLCFGRYGREDNTLIMTTRGGGLIIKILKATAVFVEGGSEVGPPPAQAMKLNVPRKTRLYVDQTLREREAGTAMHRAFQTDLYLLRLRAARAYLQALESSLSPLSTTAREPLKLHAVVQGLGPTFKLTLHLQNTSTTRPVLGLLVCFLYNEALYSLPRAFFKVPLLVPGLNYPLETFVESLSNKGISDIIKVLVLREGQSAPLLSAHVNMPGSEGLAAA [R404A],disrupting interaction strength

# Variants of: B2
# Details: with bbs4_bovin BBS4, Q1JQ97
row,Variant,effect of a mutation on the interaction
1,MGLLDRLSVLLGLKKKEVHVLCLGLDNSGKTTIINKLKPSNAQSQNILPTIGFSIEKFKSSSLSFTVFDMSGQGRYRNLWEHYYKEGQAIIFVIDSSDRERMVVAKEELDTLLNHPDIKHRRIPILFFANKMDLRDAVTSVKVSQLLCLENIKDKPWHICASDAIKGEGLQEGVDWLQDQIQTVKT [L100E],disrupting interaction strength
2,MGLLDRLSVLLGLKKKEVHVLCLGLDNSGKTTIINKLKPSNAQSQNILPTIGFSIEKFKSSSLSFTVFDMSGQGRYANLWEHYYKEGQAIIFVIDSSDRLRMVVAKEELDTLLNHPDIKHRRIPILFFANKMDLRDAVTSVKVSQLLCLENIKDKPWHICASDAIKGEGLQEGVDWLQDQIQTVKT [R77A],disrupting interaction strength
3,MGLLDRLSVLLGLKKKEVHVLCLGLDNSGKTTIINKLKPSNAQSQNILPTIGFSIEKFKSSSLSFTVFDMSGQGRYRNLWEHYYKEGQAIIFVIDSSDRLRMVVAKEALDTLLNHPDIKHRRIPILFFANKMDLRDAVTSVKVSQLLCLENIKDKPWHICASDAIKGEGLQEGVDWLQDQIQTVKT [E108A],disrupting interaction strength
